Assay [1] concerns the target endogenous B2 receptor of the human umbilical vein (human (endogenous in umbilical vein)) (UniProt P30411).
The target of assay [2] is human B1R (B1R-FLAG vector) (human) (UniProt P46663). The experiment in a line: radioligand binding; competition of 1 nM [^3H]Lys-des-Arg^9-BK binding to HEK 293a cells transiently expressing human B1R (B1R-FLAG vector); one-site competition fit.
In a further assay the target is human recombinant ACE (Homo sapiens, UniProt P12821). The experiment in a line: radioligand binding; competition of 2 nM [^3H]enalaprilat binding to HEK 293a cells transiently expressing human recombinant ACE by BK and analogs; one-site competition fit.
For assay [3], the target named is rabbit B2R-green fluorescent protein (rabbit) (UniProt Q28642). Put plainly: radioligand binding; competition of 3 nM [^3H]BK binding to adherent intact HEK 293 cells stably expressing rabbit B2R-GFP by unlabeled peptides; 0 °C; peptidase inhibitors that included captopril; one-site competition fit.

Chain of human recombinant ACE (P12821 30-1306): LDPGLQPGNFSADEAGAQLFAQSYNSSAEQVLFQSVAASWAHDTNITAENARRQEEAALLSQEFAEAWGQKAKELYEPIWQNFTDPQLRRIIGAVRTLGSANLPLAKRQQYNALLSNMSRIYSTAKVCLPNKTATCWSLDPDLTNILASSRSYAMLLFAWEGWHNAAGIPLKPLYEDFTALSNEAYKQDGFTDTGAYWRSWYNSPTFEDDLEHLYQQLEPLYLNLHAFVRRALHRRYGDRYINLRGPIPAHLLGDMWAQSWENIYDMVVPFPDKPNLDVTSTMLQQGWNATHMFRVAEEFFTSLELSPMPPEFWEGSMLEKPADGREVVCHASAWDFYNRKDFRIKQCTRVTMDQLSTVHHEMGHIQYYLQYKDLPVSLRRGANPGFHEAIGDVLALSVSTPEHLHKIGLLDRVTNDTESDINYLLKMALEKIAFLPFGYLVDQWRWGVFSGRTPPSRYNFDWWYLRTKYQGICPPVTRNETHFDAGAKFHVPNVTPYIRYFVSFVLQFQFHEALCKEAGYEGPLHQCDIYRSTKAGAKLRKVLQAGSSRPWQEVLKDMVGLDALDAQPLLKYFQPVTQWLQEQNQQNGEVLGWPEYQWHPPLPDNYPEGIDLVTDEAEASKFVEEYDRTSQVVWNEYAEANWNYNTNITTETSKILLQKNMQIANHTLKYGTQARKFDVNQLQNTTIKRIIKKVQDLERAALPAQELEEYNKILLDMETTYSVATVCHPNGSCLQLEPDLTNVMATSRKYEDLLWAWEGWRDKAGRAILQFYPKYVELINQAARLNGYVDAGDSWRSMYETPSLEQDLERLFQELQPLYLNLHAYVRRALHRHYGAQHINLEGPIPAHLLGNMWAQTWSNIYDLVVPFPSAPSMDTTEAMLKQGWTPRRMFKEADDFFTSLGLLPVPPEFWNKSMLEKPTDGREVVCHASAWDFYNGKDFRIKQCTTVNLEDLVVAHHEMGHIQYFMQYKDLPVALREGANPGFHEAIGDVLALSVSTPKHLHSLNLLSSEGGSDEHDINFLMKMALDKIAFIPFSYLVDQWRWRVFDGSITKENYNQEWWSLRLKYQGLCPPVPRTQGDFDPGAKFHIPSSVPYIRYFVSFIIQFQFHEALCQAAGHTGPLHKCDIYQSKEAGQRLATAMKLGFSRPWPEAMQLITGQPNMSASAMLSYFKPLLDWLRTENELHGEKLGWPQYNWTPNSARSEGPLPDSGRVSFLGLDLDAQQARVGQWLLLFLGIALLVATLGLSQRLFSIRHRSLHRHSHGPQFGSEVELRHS

Regarding BK-His-Leu (peptide), the log(EC50) of contraction of the human isolated umbilical vein, with ACE blocked by enalaprilat 1 μM, Figure 3C in assay [1] was -5.34 log M. For the same substance, the log(IC50) was more than -5 log M in assay [2], -5.28 log M in the assay with human recombinant ACE and -5.24 log M in assay [3].

Regarding BK-Ala-Pro (peptide), the log(EC50) of contraction of the human isolated umbilical vein, with ACE blocked by enalaprilat 1 μM, Figure 3D in assay [1] was -5.55 log M. In addition, the log(IC50) is more than -5 log M in assay [2], -5.46 log M with human recombinant ACE and -5.11 log M in assay [3].

BK-Ser-Tyr (peptide) yielded a log(EC50) of contraction of the human isolated umbilical vein, with ACE blocked by enalaprilat 1 μM, Figure 3B in assay [1] of -6.32 log M. Further, the log(IC50) is more than -5 log M in assay [2], -5.21 log M with human recombinant ACE and -5.79 log M in assay [3].

The values are drawn from PMC3945637 (Frontiers in Pharmacology, 2014).
